The text below walks through data of article PMC3593993.

This experiment deals with constitutively active Go2α (Go2αQ205L), Gal4 DNA-binding domain fusion (pGBKT7-Go2αQ205L) (UniProt P18872). The experiment can be described thus: two-hybrid.

In the case of “Girdin prey of the mating and α-galactosidase experiments (pACT2-Girdin) (from UniProt Q5SNZ0 1318-1873) (domain or fragment)”, the fold of the interaction (α-galactosidase activity) against Go1αQ205L worked out at 2.5 fold.
